According to the supplement of paper PMC12764529:
± gives the half width of the 95% confidence interval.

experiment: folding stability dG unfold from trypsin proteolysis; higher = more stable
Summary of the method: (§1)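 Unfolding free energy was derived, per protease or combined, by relating Bayesian-fitted K50 values from sequencing counts to a sequence-predicted unfolded-state K50 and a shared folded-state K50. The underlying digests exposed cysteine-free mini-proteins under 80 residues, in a PA-tagged cDNA display construct, to trypsin and chymotrypsin at 11 threefold-diluted concentrations and to a no-protease condition. A filter kept only designs with AlphaFold2 dimer inter-PAE above 15.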

Sequence | folding stability dG unfold [kcal/mol]
SAGGSAGGSAGLTLEVELPDGKPFPVEVLEVDPGEEDVVVIRVKVKVGDKEYEVTLVLDLSAGGSAGGSAGG [r17_536_TrMRF] | 1.94 ± 0.095
SAGGMKIEVEVSDSDIESAAERIAKEVYEKIKAEGKNEDVEVTLTLPNGTRYRIVVDGKGNVKEIIESSAGG [r13_965_JUSTAS] | 3.07 ± 0.17
SAGGSKPEKIKVVSVEVFPDGLIKVKVKTESGYEATALIVKLPGDKYLIFLTIPANGKPFVFELPASAGGSA [r2_361_TrMRF] | 2.36 ± 0.059
SAGGSADIKIIKLPEKNELVILVPGEFDENVPLVLHDEGGPSWEVVDARVERVGDDLIITAKVRKSSAGGSA [r15_838_TrMRF] | 0.594 ± 0.037
SAMPIPNKNVVIRAKRSPDGTWDLTITVDNEKLGSKKAKTEEELKALVEEIAKEIAEKLGPGNVTVVEESAG [r14_791_JUSTAS] | 2.74 ± 0.28
SAGGEIAKRFAKYARDAGYDVRVDVEIIPPDEFPGLKPGKPYVIKVEIEVTPPNGPRRPLGEFTIMINSAGG [r13_874_TrROS] | 2.13 ± 0.06
SAGGSAGGSAGMVFLDPETRLLLVVHPNGEPELVLLEDGRAVLFHPSTGERREIPLAEIGSAGGSAGGSAGG [r11_297_TrMRF] | -0.195 ± 0.13
SAGGMVIRVRFRETNETVTLSPEVLEALKRGDPDALRALPEEQREALARIERVEIRPAPPVRVLPEEESAGG [r13_233_TrROS_Hall] | 2.63 ± 0.14
SKIKIEVDEETGVITVTVEVDNLSEEEILDKLKEELEKLGFEVEVKVVKIEEVNGKVVVTVEIKIKPEKLSA [r9_347_TrROS_Hall] | 1.75 ± 0.11
SAGGSAGGSAIKKTPNGKYLLKVTFTETYKDKKTGKTYKKTYTKTYVFDKKTNKWKSAEELSAGGSAGGSAG [r3_394_TrROS_Hall] | 2.41 ± 0.17
SAGGSAKKPEVTVEIEIVLPKEELEELLEALRKLPGLKVEVEEVEVREDGYVRVKLRITLPPGVKPSAGGSA [r15_441_TrROS_Hall] | 2.39 ± 0.062
SAGGSAGGSSSMVVIEKEFPDLTPEEVEKLAKEIEEKNPELGKVEVKFKPKKKPKPPLTPEAKKSAGGSAGG [r6_825_JUSTAS] | -0.672 ± 0.21
SAPDPEQRKKNREQQEKNERMIPIQIHVYDKDGKWKPIGPVWFKDPDVPIDDLVPTFHDEGFDYVSISISAG [r14_318_TrROS] | 0.153 ± 0.15
SMKITATETPVGDKTTVTITVTIDPKEFPNKPPTEEFYKKIAEELMKKLGLKTYNISKTSSNTYTITIVDSA [r9_883_JUSTAS] | 2.42 ± 0.061
SAGGSAGGSGGMMKVIVSVSPGEEAVEKVNKLVNETDLPPIEVIIIPHSPDDPIVVAILLLLLSAGGSAGGS [r12_649_JUSTAS] | 2.33 ± 0.053
SAGGSAGGKKPVYEIEITTKDGSKLTIAVKEGEEVEIKITVNGKEISLEDITSIEIRPVELPEESAGGSAGG [r6_222_TrROS_Hall] | 1.99 ± 0.16
SAGGSAGGGMPPVVTTEISVEEVRPDERDENGNRYFLVTTTLTFPDSTVTTERWLEEEELEELLSAGGSAGG [r6_724_JUSTAS] | 1.3 ± 0.033
SAGGDPGKPTSVTLTLTVPKDKKTVKLEVTFNPETGEAVITFPGSSKTVTLPFGSLPDVLDAAKKLLYSAGG [r13_439_TrMRF] | 2.31 ± 0.063
SAGGSAGGMVERPITLRVRVKTPEEVKKLVEELLKPTDAKADVVEEELEDGTVLVTLTIYVPEESAGGSAGG [r6_719_TrMRF] | 1.67 ± 0.019
SAGGSAGGSMYIVNIKFYNPKTGKVLYIPIKTKKEKAEEIAKELAKKLPEIKYIKAEIKPDISSAGGSAGGS [r12_757_TrMRF] | 1.21 ± 0.093
SAGGMMEIEVEIEKLEDGTYRIRIRVRLPNGEEVEKEMTFDRETGTLTITFDRPIEPDQIVEIEIEPSAGGS [r16_95_TrROS_Hall] | 3.94 ± 0.16

experiment: folding stability dG unfold from chymotrypsin proteolysis; higher = more stable
Summary of the method: as §1

Sequence | folding stability dG unfold [kcal/mol]
ATVTITDVSFDPETNTITVTVTVTGPDGTTTTFTATFRIEPAPPPAPPAPVYVVDDDGKVYNLDTGEWKDVS [r1_270_TrROS_Hall] | 2.3 ± 0.037
SAGGMPKTITVERTLDVDPAVLASTTPEELVARVVEELRAEGVPISSVDPQTITRGATTVTVRVTLLESAGG [r13_432_JUSTAS] | 2.322 ± 0.023
SAGGSAGGSAGMELKIKVTLTPPGAPVPLTLELEVESEEEARERLEKEYPDREIELEVLESAGGSAGGSAGG [r17_428_JUSTAS] | 0.354 ± 0.088
SAGGSMKPVKKTIVILKPSSVTEEEVKEEVVEKAKELGLKVKPIRTEVYPLPDYYLVVVEVEIEVPPESAGG [r13_351_TrMRF] | 1.24 ± 0.072
SAGGEFEVEELPPGGLLLVTFRAPADLPLEIPLEFTSPDGSPVEVAEYEREPFGDYVLITVLVRVPDSAGGS [r16_499_TrMRF] | 2.77 ± 0.16
SAGGSAGGSAGGLLKLKLKLKYEFTFKDENGNTYKVEKELTLVLELPPINETGKKNLVLSAGGSAGGSAGGS [r10_168_TrMRF] | 3.66 ± 0.063
SAGGSAGGSAGPFTIMVIERVPPDDPEYDKLHKDNGMPPENMIRIKIFRFKSPEQLKELFSAGGSAGGSAGG [r11_83_TrROS] | 2.12 ± 0.06
SAGAKVTVEPVKVEPLPNGEVKVTAKVTIYDPNTTKPTEIEVTGTYKLHPNGKPVKPETIVAEAIKKAASAG [r5_604_TrMRF] | 0.337 ± 0.17
SAGGPVLVLVEVEAGFDGRPRLRRLVLPVELRPDGTVDLDAVRRAVEELLPPDWRILRIEVVPPDAPFSAGG [r13_504_TrMRF] | 1.46 ± 0.045
SAGGSAGGSAGKVIKLEELKKKFPNMSPEELAAFFKKLGYKVEVVKVGDVPYVFLSPGEKSAGGSAGGSAGG [r11_707_TrMRF] | 3.676 ± 0.02
SAGGSAGGSAGGMKTLTVTTESLTKEEIIEEIKAMGYPNAKVTVTPSPENPDKYIVNVIESAGGSAGGSAGG [r7_988_JUSTAS] | 0.736 ± 0.13
SAGGSAGGSAGGSMLPPDTTVTSTTFLPNGTVVNTTTTYTATPDDTYTVTTTTTTTPLTSSAGGSAGGSAGG [r7_249_JUSTAS] | 0.631 ± 0.16
SAGGSAGGSAGMVVVERTSAPDPDKPTSYWFYTKTTFFPDGSVLSETKKFPSPAELEKATSAGGSAGGSAGG [r11_792_JUSTAS] | 1.07 ± 0.12
SAGGSAGGPKHVEIVITPDLRKEIEENQKEGDPPTLMEIAKEIAREFRANGMPVDIKILPPEDFSAGGSAGG [r6_815_TrROS] | 0.29 ± 0.31
SAGGSAGGSAGKIEIIKDKKNGKYTVKIRNKDGEEIEIEVDSLEELEELAKKLNIEVEVESAGGSAGGSAGG [r11_1049_TrROS_Hall] | 3.4 ± 0.21
SAGGSAMLVIEIEVDGKKVTLVIEVPPEMTEEEIRELAEELAERLRALPGVKEVKVKIERVPPPPESAGGSA [r15_246_TrROS_Hall] | 3.56 ± 0.18
SAGGSAGGSAGAFVGYRDEGGRYWLRTPEGELELDSEEDALEWADFLRANGIPLLSEPRPSAGGSAGGSAGG [r17_35_TrMRF] | 1.59 ± 0.11
SAGGSAGGSAGSIGFDSLEEAEKAIEEARRNNVPLTIELRLPDGSTLRIPVDLEIPEDDPSAGGSAGGSAGG [r17_462_TrMRF] | 1.19 ± 0.037
GSNAVEVTLEVEVTITDPKTPDNKTTTVTIPLTVKLPPSVTSLEELEALARERAEAVAAELGGTVVTVTPVS [r1_300_JUSTAS] | 2.42 ± 0.067
SAGTITADDITEIEMQWDPGNGYVQIEIEFPNGYTVNAWMPNDKIEIEVWYPNGKKVEIEFEIKPPGASAGG [r19_121_TrROS] | 2.74 ± 0.18
SAGGMTASSTTLPPSGITSQTTTDPATGVTTTTTRYPDGTVTTTTTTALPPPAAATTTTTTALPGSAAASAG [r5_766_JUSTAS] | 1.68 ± 0.07

Sequence | folding stability dG unfold [kcal/mol]
SAGGSAGGSAGLTLEVELPDGKPFPVEVLEVDPGEEDVVVIRVKVKVGDKEYEVTLVLDLSAGGSAGGSAGG [r17_536_TrMRF] | 1.76 ± 0.08
SAGGMKIEVEVSDSDIESAAERIAKEVYEKIKAEGKNEDVEVTLTLPNGTRYRIVVDGKGNVKEIIESSAGG [r13_965_JUSTAS] | 3.79 ± 0.16
SAGGSKPEKIKVVSVEVFPDGLIKVKVKTESGYEATALIVKLPGDKYLIFLTIPANGKPFVFELPASAGGSA [r2_361_TrMRF] | 2.61 ± 0.031
SAGGSADIKIIKLPEKNELVILVPGEFDENVPLVLHDEGGPSWEVVDARVERVGDDLIITAKVRKSSAGGSA [r15_838_TrMRF] | 0.701 ± 0.049
SAMPIPNKNVVIRAKRSPDGTWDLTITVDNEKLGSKKAKTEEELKALVEEIAKEIAEKLGPGNVTVVEESAG [r14_791_JUSTAS] | 2.54 ± 0.15
SAGGEIAKRFAKYARDAGYDVRVDVEIIPPDEFPGLKPGKPYVIKVEIEVTPPNGPRRPLGEFTIMINSAGG [r13_874_TrROS] | 3.18 ± 0.046
SAGGSAGGSAGMVFLDPETRLLLVVHPNGEPELVLLEDGRAVLFHPSTGERREIPLAEIGSAGGSAGGSAGG [r11_297_TrMRF] | 0.318 ± 0.12
SAGGMVIRVRFRETNETVTLSPEVLEALKRGDPDALRALPEEQREALARIERVEIRPAPPVRVLPEEESAGG [r13_233_TrROS_Hall] | 1.81 ± 0.14
SKIKIEVDEETGVITVTVEVDNLSEEEILDKLKEELEKLGFEVEVKVVKIEEVNGKVVVTVEIKIKPEKLSA [r9_347_TrROS_Hall] | 0.9 ± 0.073
SAGGSAGGSAIKKTPNGKYLLKVTFTETYKDKKTGKTYKKTYTKTYVFDKKTNKWKSAEELSAGGSAGGSAG [r3_394_TrROS_Hall] | 3.12 ± 0.12
SAGGSAKKPEVTVEIEIVLPKEELEELLEALRKLPGLKVEVEEVEVREDGYVRVKLRITLPPGVKPSAGGSA [r15_441_TrROS_Hall] | 3.48 ± 0.046
SAGGSAGGSSSMVVIEKEFPDLTPEEVEKLAKEIEEKNPELGKVEVKFKPKKKPKPPLTPEAKKSAGGSAGG [r6_825_JUSTAS] | 1.29 ± 0.036
SAPDPEQRKKNREQQEKNERMIPIQIHVYDKDGKWKPIGPVWFKDPDVPIDDLVPTFHDEGFDYVSISISAG [r14_318_TrROS] | 0.209 ± 0.23
SMKITATETPVGDKTTVTITVTIDPKEFPNKPPTEEFYKKIAEELMKKLGLKTYNISKTSSNTYTITIVDSA [r9_883_JUSTAS] | 2.5 ± 0.025
SAGGSAGGSGGMMKVIVSVSPGEEAVEKVNKLVNETDLPPIEVIIIPHSPDDPIVVAILLLLLSAGGSAGGS [r12_649_JUSTAS] | 3.12 ± 0.032
SAGGSAGGKKPVYEIEITTKDGSKLTIAVKEGEEVEIKITVNGKEISLEDITSIEIRPVELPEESAGGSAGG [r6_222_TrROS_Hall] | 1.84 ± 0.089
SAGGSAGGGMPPVVTTEISVEEVRPDERDENGNRYFLVTTTLTFPDSTVTTERWLEEEELEELLSAGGSAGG [r6_724_JUSTAS] | 0.912 ± 0.16
SAGGDPGKPTSVTLTLTVPKDKKTVKLEVTFNPETGEAVITFPGSSKTVTLPFGSLPDVLDAAKKLLYSAGG [r13_439_TrMRF] | 2.65 ± 0.035
SAGGSAGGMVERPITLRVRVKTPEEVKKLVEELLKPTDAKADVVEEELEDGTVLVTLTIYVPEESAGGSAGG [r6_719_TrMRF] | 1.58 ± 0.038
SAGGSAGGSMYIVNIKFYNPKTGKVLYIPIKTKKEKAEEIAKELAKKLPEIKYIKAEIKPDISSAGGSAGGS [r12_757_TrMRF] | 1.74 ± 0.19
SAGGMMEIEVEIEKLEDGTYRIRIRVRLPNGEEVEKEMTFDRETGTLTITFDRPIEPDQIVEIEIEPSAGGS [r16_95_TrROS_Hall] | 4.41 ± 0.2
